Experimental data: the nanobody polyreactivity screen of Harvey et al. (2022)

Assay: yeast display, Sf9 membrane polyspecificity reagent, FACS + sequencing; frameworks hold sequencing errors
Method in brief: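 In a synthetic yeast display library (Saccharomyces cerevisiae BJ5465), nanobody expression was induced with galactose for 36–48 hours. FACS gates were set low and high (top ~1%) using anti-HA fluorescence for expression and streptavidin fluorescence for binding of the Sf9 membrane reagent. Each polyreactivity label is drawn from the gate of origin.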

Row | Sequence | polyreactivity (PSR sort gate)
1 | QVQLVESGGGLVQAGGSLRLSCAASGNILGYYAMGWYRQAPGKERELVADINWDGGSTYYADSVKGRFTISRDNAKNTVYLQMNSLKPEDTAVYYCNAEVGITWWFREVDYWGQGTQVTVSS | high polyreactivity
2 | QVQLVESGGGLVQAGGSLRLSCAASGFTFGDYAMGRYRPEPGKERELVAAISSGGNTNYADSVKGRFTISRDNAKHTVYLQMNRLKPEDTAVNNCAPRRQSKGYKLNYWGHGTQVTVSS | high polyreactivity
3 | QDQLVESGGGLVQAGGSLRLSCAASGRIFSIYAMGWYRQAPGKERELVAAITRGGRTIYADSVKGRFTISRDNAKNTVYLQMNSLKPEDTAVYYCAARRIDGVVKPYDYWGQGTQVTVSS | low polyreactivity
4 | QVQLVESGGGLVQAGGSLRLSCAASGRIFYNYDMGWYRQAPGKERELVAAITSGGNTYADSVKGRFTISRDNAKNTVYLQMNSLKPEDTAVYYCNARDKFYVPSQYAYDYWGQGTQVTVSS | low polyreactivity
5 | QVQLVETGGGLVQAGGSLRLSCAASGSIFGAYAMGWYRQAPGKERELVAAITWTAGSTFYADSVKGRFTISRDNAKNTVYLQMNSLKPEDTAVYYCAAEYYTETQWSRYYRYYYWGQGTQVTVSS | low polyreactivity
6 | QVQLVESGGGLVQAGGSLRLSCAASGRTFVYNAMGWYRQAPGKERELVATITFSGGSTYYADSVKGRFTISRDNAKNTVYLQMNSLKPEDTAVYYCNTQGVHHYYHAPQVRGYDYWGQGTQVTVSS | low polyreactivity
7 | QVQLVESGGGLVQAGGSLRLSCAASGSIFVYNAMGWYRQAPGKEMELVAAISTSGGRTYYADSVKGRFTISRDNAKNTVYLQMNSLKTEDTAVYYCNALGYWRRVVDGFDYWGQGTQVTVSS | high polyreactivity
8 | QVQLVESGGGLVQAGGSLRLSCAASGRSFPTYAMGWYRQAPGKERELVATISWSGGRTYYADSVKGRFTISRDNAKNTVYLLMNSLKPEDTAVYYCNAYISYRWYRWEYEYWGQGTQVTVSS | low polyreactivity
9 | QVQLVESGGGLVQAGGSLRLSCAASGSILGYYVMGWYRQAPGKERELVAAISWSSGSTYYADSVKGRFTISRDNAKNTVYLQLNSLKPEDTAVYYCNASNVYFWFVTLEFDSWGQGTQVTVSS | low polyreactivity
10 | QVQLVESGGGLVQAGGSLRLSCAASGGTFWKYPMGWTRQAPGKERELVAAITWSGSSTYYADSVKGRFTISRDNAKNTVYLQMNSLKPEDTAVFYCAARYQPRKGAHYGYWGQGTQVTVSS | high polyreactivity
11 | QVQLVESGGGLVQAGGSLRLSCAASGFTFWLYAMGWYRQAPGKERELVAAIDWDCGTYYADSVKGRFTISRDNAKNTVYLQMNSLKPEDTAVYYCAARYRYYYTRYDYWGQGTQVTVSS | high polyreactivity
12 | QVQLVESGGGLVQAGGSLRLSCAASGRTFYWYTMGWYRQAPGKERELVAAISIGGITSYADSVKGRFTISRDNAKNTVYLQMNSLKPEDTAVYYCAAESACSRPYFNSIHRRDSWGQGTQVTVSS | low polyreactivity
13 | QVQLVDSGGGLVQAGGSLRLSCAATGTIFAAYVMGWYRQAPGKERELVAAISYSGGGTYYADSVNGRFTISRDNAKNTVYIQMNSLKPEDTAVYYCAADFGVFKSARYYYWGQGTQVTVSS | low polyreactivity
14 | QVQLVETGGGLVQAGGSLRLSCAASGRNFNWNTMGWYRQAPRKEREFDAAISGSGGSTYYADSVKGRFTISRDNAKNTVYLQMISLKPEDTAVYYCAKRLYYSYYDEMDYWGQGTQVTVSS | high polyreactivity
15 | QVQLVETGGGLVQAGGRLRLSCAASGITFYFNTMGWYRPAPGKERELVASISGGSSTYYADSVKGRFPISRDNAKNTVYLQMISLKREDTAVYYCNAQGSLFRGWFDYDYWGQGTQVTVSS | low polyreactivity
16 | QVQLVESCGVLVQAGGSLRLSCDASGSIFVWNAMGWYREAPGKERELVAAIRSDDDSTYYADSVKGLFTISRDNAKNTVYLQMNCLNPEDTAVINALVDSPTFSHVKPWDGGDYWGQGTQVTVSS | low polyreactivity
17 | QVQLVESRGGLVQAGGSLRLSCAASGSTFYLNVMGWYIQAPGKERELVAAITYRGGRTSYADSVKGRFTISRDNAKNTVYLQMISLKPEDTAVYYCATPKYYGYYYWGHGTQVTVSS | high polyreactivity
18 | QVQLVESGGGLVQAGGSLRLSCAASGSTFGRNAMGWYRQAPGKEREFVAAISSRGGRTSYADSVKGRFTISRDNAKNTVYLQMNSLKPEDTAVYYCATLGYFSASRTDYDYWGQGTQVTVSS | low polyreactivity
19 | QVQLVESGGGLVQAGGSLRLSCAASGSILPYYAMGWYRQAPGKERELVAAISDSGGSTYYADSVKGRFTISRDNSKNTVYLQMNILKPEDTAVYYCNAVVRSTAHGYWGQGTQVTVSS | high polyreactivity
20 | QVQLVESGGGLVQAGGSLRLSCSASGSNFYTNAMGWYRQAPGKERELVAVITASGGSTYYADSVKGRFTISRDYAKNTVYLLMNSLKPEDTAVYYCASDPVFNYDYWGQGTQVTVSS | low polyreactivity

Row | Sequence | polyreactivity (PSR sort gate)
21 | QVQLGESGGGLVQAGGSLRLSCAASGGTFARNTMGWYRQAPGKERELVAAITRGGSSTYYADSVKGRFTISRDYAKNTVYLQMNSLKPEDTAVYYCNKSLRWLYPYYGTTGRYDYWGQGTQVTVSS | high polyreactivity
22 | QVQLVESGGGLVQAGGSLRLSCAASGRTLRAYAMGWYRQAPGKERELVAAITWSGGSTYYADSVKGRFTISRDTAKNTVYLQMNSLKPEDTAVYYCNARSYPDLYDYWGQGTQVTVSS | low polyreactivity
23 | QVQLVESGGGLVQAGGSLRLSCAASGSTFVGYAMGWYRQAPGKERELVADIDSIGGSTYYADSVKGRFTISRDNAKNTVYLQMNSMKPEDTAVYYCAARRFDTALVLYDYWGQGSQVTVSS | low polyreactivity
24 | QVQLVESGGGLVQAGGSLRLSCAASGFILGVYAMGWYRQAPGKERELVAAITFSGASTYYADSVKGRFTISRDNAKNTVYLQMNSLKPEDTAVYYCNKTSAYYRYEYWGQGTQVTVSS | low polyreactivity
25 | QVELVESGGGLVQAGGSLRLSCAASGSTFYRYAMGWYRQAPGKEREFVARIDWSDGSTNYADSVKGRFTISRDTAKNTVYLQMNSLKPEDTAVYYCAADTYYDTYDGEYEYWGQGTQVTVSS | low polyreactivity
26 | QVQLVESGGGLVQAGGSLRLSCAASGSTIDIYAMGWYRQAPGKERELVAAISNSGDTYYADSVKGRFTISRDNAKNTVYLQMNSLKPEDTAVYYCAAPAAGDEYDYWGQGTQVTVSS | high polyreactivity
27 | QVQLVDSGGGLVQAGGSLRLSCAASGSTLNVYAMGWSRQAPGKERELVATIRRRGTSTYYADSVKGRFTISRDNAKNTVYLQMNSLKPEDTAVYYCAADTRTYRLSSGSGHWEYDYWGQGTQVTVSS | high polyreactivity
28 | QVQLVESGGGLVQAGGSLRLTCAASGRTFIVYAMGWYRQAPGKERELVAGITRGSTNYADSVKGRFTISRDNAKNTVYLQMNSLKPEDTAVYYCATEVYIWPWGTVYAFEYDYWGQGTQVTVSS | high polyreactivity
29 | QVKLVESRGGLVQAGGSLRLSCAASARIFVHNAKGCYRQAPGKAREFDAAITRRGGSTYADSVKGRFRISRDNAKNTVYLQMTSLKPEDTAVYYCNAESYYGIFRYNYDYWGQGTQVTVSS | high polyreactivity
30 | QVQLVESGGGLVQAGGSLRLSCAASGSIFSYYAMGWSRQAPGKERELVAAISSGGSRTYYADSVKGRFTISRDNAKNTVYLQMNSLKPEDTAVYYCNAPAPARYYRGHDYWGQGTQVTVSS | high polyreactivity
31 | QVQLVESGGGLVQAGGSLRLSCAASGSIFVRNAMGWYRQAPGKERELVAAITYRGGSTYYADSVKGRFTISRDNAKNTVYLQMNSLKPEDTAVYYCAARYWQSYRSQVTHSSTLDYWGQGTQVTVSS | low polyreactivity
32 | QVQLVESGGGLVQAGGSLRLSCAASGFIFFKYAMRWYRQAPGKEREFVAAISKSGTSTYYADSVKGRFTISRDNAKNTVYLQMNSLKPEDTAVYYCAARKDSYYYRSYDSWGQGTQVTVSS | high polyreactivity
33 | QVQLVESGGGLVQAGGSLRLSCAASGRIFSVYAMGWSRQAPGKERELVATIRWGGGSTYYADSVKGRFTISRDNAKNTVYLQMNSLKPEDTAVYYCAAGWRGGRYRYFAYDYWGQGTQVTVSS | high polyreactivity
34 | QVQLVESGGGLVQAGGSLRLSCAASGFIFTKYTMGWYRQAPGKERELVADITGRGTSTYADSVKGRFTISRDNAKNTVYLQMNSLKPEDTAVYYCAAVGWFADFLFSDINGYYWGQGTQVTVSS | low polyreactivity
35 | QVQLVESGGGLVQAGGSLRLSCAASGRIFGQNAMGWYRQAPGKERELVAVITSRGTRTYYADSVKGRFTISRDNAKNTVYLQMNSLKPEDTAVYYCAADVYSDNYKTWPYDYWGQGTQVTVSS | low polyreactivity
36 | QVQLVESGGGLVQAGGSLRLSCAASGRTLGTNAMGWYRQAPGKERELVAAITRNGGSTYYADSVKGRFTISRDNAKNTVYLQMNSLKPEDTAVYYCAARYFHSVGGWPVSYRYNYWGQGTQVTVSS | high polyreactivity
37 | QVQLVESGGGLVQAGGTLRLSCAASGRTFGYNAMGWYRPAPGKERELVAVIRSGGSTYYADSVKGRFTISRDNAKNTVYLQMNSLKPEDTAVYYCAATGLYNVTSPYSYKYDYWGQGTQVTVSS | low polyreactivity
38 | QVQLEESGGGLVQAGGSLRLSCAASGSIFRNNSMGWYRKAPGKERVLVAVISRRSGNTYYADSVKGRLTISRDNAKNTVYLQMNSLKAEDTAVYYCAADYSKSSIRGEYWGQGTQVTVSS | low polyreactivity
39 | QVQLQESGGGLEQAGGSLRMSCAANGNIFDADIVGRYRQAPGKKRELVASITDGGITNYADSVKGRFTISRDNAKYTVYLQMNSQNPEDTAVYYCAAIAYPDIPTYFDYDSDFFYWGQGTQVTVSS | high polyreactivity
40 | QVQLVESGGGLVQAGGSLRLSCAASGSIFGRYAMGWYRQAPGKERELVAAISYSGGSTYYADSVKGRFTISRDNAKNTVYLQMNSLKPEDTAFYYCAAETSYYTRWFDGHYYYWGQGTQVTVSS | high polyreactivity
